{"source": "patent US11278600B2", "about": "“Human alpha-galactosidase variants” (Codexis, Inc., priority 2014, dated 2022)", "molecules": {"B1": {"name": "150 (protein)", "chain": "LDNGLARTPTMGWLHWERFMCNLDCQEEPDSCISEKLFMEMAELMVSEGWKDAGYEYLCIDDCWMAPQRDSEGRLQADPQRFPHGIRQLANYVHSKGLKLGIYADVGNKTCAGFPGSFGYYDIDAQTFADWGVDLLKFDGCYCDSLENLADGYKHMSLALNHTGRSIVYSCEWPLYMWPFQKPNYTEIRQYCNHWRNFADIDDSWKSIKSILDWTSFNQERIVDVAGPGGWNDPDMLVIGNFGLSWNQQVTQMALWAIMAAPLFMSNDLRHISPQAKALLQDKDVIAINQDPLGKQGYQLRQGDNFEVWERPLSGLAWAVAMINRQEIGGPRSYTIAVASLGKGVACNPACFITQLLPVKRKLGFYEWTSRLRSHINPTGTVLLQLENTMQMSKDLLL", "modifications": "Synthetic Polypeptide sequence of Variant No. 150 of mature Human GLA"}, "B2": {"name": "156 (protein)", "chain": "B1 chain with H162R, R371S", "modifications": "Synthetic Polypeptide sequence of Variant No. 156 of mature Human GLA"}, "B3": {"name": "155 (protein)", "chain": "B1 chain with H162R, R301L", "modifications": "Synthetic Polypeptide sequence of Variant No. 155 of mature Human GLA"}, "B4": {"name": "157 (protein)", "chain": "B1 chain with H162R, R371V", "modifications": "Synthetic Polypeptide sequence of Variant No. 157 of mature Human GLA"}, "B5": {"name": "158 (protein)", "chain": "B1 chain with R87K, H162R", "modifications": "Synthetic Polypeptide sequence of Variant No. 158 of mature Human GLA"}, "B6": {"name": "160 (protein)", "chain": "B1 chain with H162R, S166A", "modifications": "Synthetic Polypeptide sequence of Variant No. 160 of mature Human GLA"}, "B7": {"name": "152 (protein)", "chain": "B1 chain with H162R, R221K, A350G", "modifications": "Synthetic Polypeptide sequence of Variant No. 152 of mature Human GLA"}, "B8": {"name": "154 (protein)", "chain": "B1 chain with H162R, R301I, K362T", "modifications": "Synthetic Polypeptide sequence of Variant No. 154 of mature Human GLA"}, "B9": {"name": "159 (protein)", "chain": "B1 chain with R87P, H162R, L398R", "modifications": "Synthetic Polypeptide sequence of Variant No. 159 of mature Human GLA"}, "B10": {"name": "153 (protein)", "chain": "B1 chain with H162R, R221T", "modifications": "Synthetic Polypeptide sequence of Variant No. 153 of mature Human GLA"}, "B11": {"name": "38 (protein)", "chain": "B1 chain with D105S, H162R", "modifications": "Synthetic Polypeptide sequence of Variant No. 38 of mature Human GLA"}, "B12": {"name": "151 (protein)", "chain": "B1 chain with H162S", "modifications": "Synthetic Polypeptide sequence of Variant No. 151 of mature Human GLA"}}, "note": "Numbering of substitutions follows the chain as printed."}
{"assay": "HTP-analysis of supernatants pretreated with acid (MUGal hydrolysis)", "format": "biochemical", "details": "challenge at pH 4.2; activity of the variant/activity of WT GLA (SEQ ID NO: 5); yeast supernatant", "summary_of_the_method": "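Yeast INVSc1 supernatant, GLA variants; acid challenge: McIlvaine pH 3.3-4.3, 37° C., 1-3 h. Assay: MUGal in McIlvaine pH 4.8 plus citrate pH 4.3, 37° C., 30-180 min, Na2CO3 stop, Ex 355/Em 448 nm.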"}
{"molecule": "B1", "Relative Activity of GLA Variants After Challenge at pH 4.2": "+ (+ = 0.5 to 1.5 relative activity over WT GLA (SEQ ID NO: 5))"}
{"molecule": "B2", "Relative Activity of GLA Variants After Challenge at pH 4.2": "+ (+ = 0.5 to 1.5 relative activity over WT GLA (SEQ ID NO: 5))"}
{"molecule": "B3", "Relative Activity of GLA Variants After Challenge at pH 4.2": "+ (+ = 0.5 to 1.5 relative activity over WT GLA (SEQ ID NO: 5))"}
{"molecule": "B4", "Relative Activity of GLA Variants After Challenge at pH 4.2": "+ (+ = 0.5 to 1.5 relative activity over WT GLA (SEQ ID NO: 5))"}
{"molecule": "B5", "Relative Activity of GLA Variants After Challenge at pH 4.2": "+ (+ = 0.5 to 1.5 relative activity over WT GLA (SEQ ID NO: 5))"}
{"molecule": "B6", "Relative Activity of GLA Variants After Challenge at pH 4.2": "++ (++ = >1.5 to 2.5 relative activity over WT GLA (SEQ ID NO: 5))"}
{"molecule": "B7", "Relative Activity of GLA Variants After Challenge at pH 4.2": "++ (++ = >1.5 to 2.5 relative activity over WT GLA (SEQ ID NO: 5))"}
{"molecule": "B8", "Relative Activity of GLA Variants After Challenge at pH 4.2": "+ (+ = 0.5 to 1.5 relative activity over WT GLA (SEQ ID NO: 5))"}
{"molecule": "B9", "Relative Activity of GLA Variants After Challenge at pH 4.2": "+ (+ = 0.5 to 1.5 relative activity over WT GLA (SEQ ID NO: 5))"}
{"molecule": "B10", "Relative Activity of GLA Variants After Challenge at pH 4.2": "+ (+ = 0.5 to 1.5 relative activity over WT GLA (SEQ ID NO: 5))"}
{"molecule": "B11", "Relative Activity of GLA Variants After Challenge at pH 4.2": "+ (+ = 0.5 to 1.5 relative activity over WT GLA (SEQ ID NO: 5))"}
{"molecule": "B12", "Relative Activity of GLA Variants After Challenge at pH 4.2": "+ (+ = 0.5 to 1.5 relative activity over WT GLA (SEQ ID NO: 5))"}
{"assay": "HTP-analysis of yeast culture supernatants, no challenge (MUGal hydrolysis)", "format": "biochemical", "details": "activity of the variant/activity of WT GLA (SEQ ID NO: 5), yeast supernatant", "summary_of_the_method": "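GLA variants expressed in yeast INVSc1, secreted into SD-Ura broth over 66-84 h at 30° C; clarified supernatants tested without challenge. Supernatant mixed with McIlvaine buffer pH 4.8 and 2 mM MUGal (citrate/KCl, pH 4.6), 37° C for 30-180 min, carbonate-quenched, fluorescence Ex 355/Em 448 nm.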"}
{"molecule": "B1", "Relative Activity of GLA Variants After No Challenge (NC)": "+ (+ = 0.5 to 1.5 relative activity over WT GLA (SEQ ID NO: 5))"}
{"molecule": "B2", "Relative Activity of GLA Variants After No Challenge (NC)": "++ (++ = >1.5 to 2.5 relative activity over WT GLA (SEQ ID NO: 5))"}
{"molecule": "B3", "Relative Activity of GLA Variants After No Challenge (NC)": "+ (+ = 0.5 to 1.5 relative activity over WT GLA (SEQ ID NO: 5))"}
{"molecule": "B4", "Relative Activity of GLA Variants After No Challenge (NC)": "++ (++ = >1.5 to 2.5 relative activity over WT GLA (SEQ ID NO: 5))"}
{"molecule": "B5", "Relative Activity of GLA Variants After No Challenge (NC)": "++ (++ = >1.5 to 2.5 relative activity over WT GLA (SEQ ID NO: 5))"}
{"molecule": "B6", "Relative Activity of GLA Variants After No Challenge (NC)": "+ (+ = 0.5 to 1.5 relative activity over WT GLA (SEQ ID NO: 5))"}
{"molecule": "B7", "Relative Activity of GLA Variants After No Challenge (NC)": "++ (++ = >1.5 to 2.5 relative activity over WT GLA (SEQ ID NO: 5))"}
{"molecule": "B8", "Relative Activity of GLA Variants After No Challenge (NC)": "++ (++ = >1.5 to 2.5 relative activity over WT GLA (SEQ ID NO: 5))"}
{"molecule": "B9", "Relative Activity of GLA Variants After No Challenge (NC)": "+ (+ = 0.5 to 1.5 relative activity over WT GLA (SEQ ID NO: 5))"}
{"molecule": "B10", "Relative Activity of GLA Variants After No Challenge (NC)": "+ (+ = 0.5 to 1.5 relative activity over WT GLA (SEQ ID NO: 5))"}
{"molecule": "B11", "Relative Activity of GLA Variants After No Challenge (NC)": "− (− = <0.5 relative activity to WT GLA (SEQ ID NO: 5))"}
{"molecule": "B12", "Relative Activity of GLA Variants After No Challenge (NC)": "+ (+ = 0.5 to 1.5 relative activity over WT GLA (SEQ ID NO: 5))"}
{"assay": "HTP-analysis of supernatants pretreated with base (MUGal hydrolysis)", "format": "biochemical", "details": "challenge at pH 7.1; activity of the variant/activity of WT GLA (SEQ ID NO: 5); yeast supernatant", "summary_of_the_method": "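Supernatants from INVSc1 yeast expressing GLA variants (SD-Ura, 66-84 h, 30° C) were mixed with McIlvaine buffer pH 7.0-8.2 or 200 mM sodium bicarbonate pH 9.1-9.7 and held 1-18 h at 37° C. Residual activity was then measured on MUGal at pH 4.8/4.3, 37° C, 30-180 min, by fluorescence (Ex 355/Em 448 nm).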"}
{"molecule": "B1", "Relative Activity of GLA Variants After Challenge at pH 7.1": "+ (+ = 0.5 to 1.5 relative activity over WT GLA (SEQ ID NO: 5))"}
{"molecule": "B2", "Relative Activity of GLA Variants After Challenge at pH 7.1": "++ (++ = >1.5 to 2.5 relative activity over WT GLA (SEQ ID NO: 5))"}
{"molecule": "B3", "Relative Activity of GLA Variants After Challenge at pH 7.1": "+ (+ = 0.5 to 1.5 relative activity over WT GLA (SEQ ID NO: 5))"}
{"molecule": "B4", "Relative Activity of GLA Variants After Challenge at pH 7.1": "++ (++ = >1.5 to 2.5 relative activity over WT GLA (SEQ ID NO: 5))"}
{"molecule": "B5", "Relative Activity of GLA Variants After Challenge at pH 7.1": "++ (++ = >1.5 to 2.5 relative activity over WT GLA (SEQ ID NO: 5))"}
{"molecule": "B6", "Relative Activity of GLA Variants After Challenge at pH 7.1": "+ (+ = 0.5 to 1.5 relative activity over WT GLA (SEQ ID NO: 5))"}
{"molecule": "B7", "Relative Activity of GLA Variants After Challenge at pH 7.1": "++ (++ = >1.5 to 2.5 relative activity over WT GLA (SEQ ID NO: 5))"}
{"molecule": "B8", "Relative Activity of GLA Variants After Challenge at pH 7.1": "++ (++ = >1.5 to 2.5 relative activity over WT GLA (SEQ ID NO: 5))"}
{"molecule": "B9", "Relative Activity of GLA Variants After Challenge at pH 7.1": "+ (+ = 0.5 to 1.5 relative activity over WT GLA (SEQ ID NO: 5))"}
{"molecule": "B10", "Relative Activity of GLA Variants After Challenge at pH 7.1": "++ (++ = >1.5 to 2.5 relative activity over WT GLA (SEQ ID NO: 5))"}
{"molecule": "B11", "Relative Activity of GLA Variants After Challenge at pH 7.1": "− (− = <0.5 relative activity to WT GLA (SEQ ID NO: 5))"}
{"molecule": "B12", "Relative Activity of GLA Variants After Challenge at pH 7.1": "+ (+ = 0.5 to 1.5 relative activity over WT GLA (SEQ ID NO: 5))"}
